Measurements reported in patent US20090023895A1.

Target: HLA-A2 molecule (a product of the HLA-A*0201 gene) (human), A*02:0

YLEEHPSAG (modifications not checked) [SEQ ID NO: 21 peptide] was tested, and the -log Kd (Binding Experiment Data) was 5.08 -log Kd.

With WMACHSAAF (modifications not checked) [SEQ ID NO: 30 peptide] the -log Kd (Binding Experiment Data) was 5.79 -log Kd.

For YLEENPSAG (modifications not checked) [SEQ ID NO: 26 peptide], the -log Kd (Binding Experiment Data) was 4.9 -log Kd.

IFLARSALI (modifications not checked) [SEQ ID NO: 35 peptide] was tested, and the -log Kd (Binding Experiment Data) was 5.94 -log Kd.
